Test results published in patent publication US7666989B2 (priority 2003, dated 2010).
Values joined by “and” are separate entries in the source; they are usually repeats but may differ in a detail not shown here. Identical values can stand only once. “Also recorded” adds a separate entry of the source. Like-named read-outs stand apart in the source and are kept apart here. Marks after values point to notes of the source that are not given here.

Legend:
[1] = test system: COLO 205 (human colon cancer cell); experiment: MTT cytotoxicity, COLO 205; type: cell-based; conditions: 4 days
Excerpt: (§1) Reagents: RPMI1640 is from GIBCO; MTT is from Bebco. Fetal bovine serum is purchased from Hangzhou SiJiQing Bioengineering Material Co. Ltd. (P. R. China).
(§2) Cell lines: COLO 205 (human colon cancer cell), NCI-H460 (human lung cancer cell), RPMI 8226 (human multiple myeloma cell), U251 (human brain glioma cell) are from ATCC, USA. HL-60 (human promyelocytic leukemia cell), MDA-MB-231, MDA-MB-435 (human breast cancer cell), SCLC (human small-cell lung cancer cell), H125 (human lung cancer cell) and PC-3 (human […] cancer cell).
(§3) The well-grown tumor cells were collected to prepare a cell suspension (1×10^4/ml) with RPMI 1640 medium containing 10% fetal bovine serum. The cell suspension was inoculated into a 96-well plate, 100 μL (containing 1000 tumor cells) per well. The plate was cultured in a 5% CO2 incubator at 37° C. for 24 hours, followed by addition of medicament.
(§4) A blank control and a positive control using 5-fluorouracil or adriamycin are employed in the experiment. […]
(§5) The supernatant was discarded. […] After gently shaking, the OD values were measured by a BIORAD 550 enzyme analyzer, with the detection wavelength being 540 nm and the reference wavelength being 450 nm.
(§6) Dose-response curves were generated by plotting with the cell inhibition rates and different concentrations of medicament, and the half inhibitory concentrations (IC50) were calculated.

[2] = test system: H125 (human lung cancer cell); experiment: MTT cytotoxicity, H125; type: cell-based; conditions: 4 days
Excerpt: as §1, §2, §3, §4, §5, §6

[3] = test system: SCLC (human small-cell lung cancer cell); experiment: MTT cytotoxicity, SCLC; type: cell-based
Excerpt: as §1, §2, §3
A blank control and a positive control using 5-fluorouracil or adriamycin are employed in the experiment. The CPT samples have five concentrations, three parallel wells for each concentration. The cells were cultured in an incubator with 5% CO2 at 37° C. for 4 days. Then the culture medium was removed and 100 μL MTT solution (0.4 mg/ml in RPMI 1640) was added to each well. The plate was incubated at 37° C. for four additional hours.
The supernatant was discarded. 150 μl DMSO was added into each well in order to solubilize Fomazan granulates. After gently shaking, the OD values were measured by a BIORAD 550 enzyme analyzer, with the detection wavelength being 540 nm and the reference wavelength being 450 nm.
as §6

[4] = test system: human colon cancer COLO 205; conditions: COLO 205 xenograft; for Body Weight (g) End / RTV / Tumor volume (mm^3) End / Tumor weight / Body Weight (g) Start / Tumor volume (mm^3) Start / Inhibition rate (%): 15 injections; for Body Weight (g) Start / Tumor volume (mm^3) Start: baseline; for Inhibition rate (%): by tumor weight
Excerpt: In this example, the animals used were BALB/c-nu nude mice, 6-8 weeks old. For each experiment, all animals were of the same sex.
Tumor cell lines: human brain glioma U251, human lung cancer cell line NCI-H460, human colon cancer cell line COLO205 were inoculated from in vitro culture into nude mice subcutaneously, the tumors were subcultured and kept.
Experimental Procedures: well-grown nude mice carrying well-grown tumors were selected and sacrificed by disjointing neck vertebra. The tumors were removed aseptically and were cut into pieces having a diameter of 2-3 mm by a scalpel. The pieces were inoculated into the axilla of nude mice subcutaneously by a needle. […] The length and width of tumors were measured by a vernier caliper. The animals were then grouped based their tumor sizes. Each group included seven to eight animals.
The length, width of the tumor and the body weight of the mice were measured twice per week. The tumor volume (TV) and relative tumor volume (RTV) were calculated. A graph indicating the changes of tumor size was plotted. At the end of this experiment, the tumors were taken out and weighed after the mice were sacrificed, and the inhibition rates of the medicament on tumor growth were calculated.
The formula for calculating tumor volume (TV) is: length×width^2÷2.
The formula for calculating relative tumor volume (RTV) is: Vt/Vo (wherein Vo is the TV value measured when the administration is started, Vt is the TV value measured after that).
T-test was used to determine the statistical difference of tumor weights, tumor volumes and RTV etc. between different groups of animal. The index used for evaluating the anti-tumor activity is the relative tumor growth rate T/C (%), the formula for which is: […]
The evaluation standard for efficacy:
T/C (%)>60 is ineffective;
T/C (%)≦60 and P<0.05 after statistical analysis is effective.
Injectable hydroxycamptothecin (trade name: Xi Su, Wuhan Lishizhen Pharmaceuticals Inc., Huangshi Lishizhen Pharmaceuticals Group, P. R. China) was used as positive control, administered by intraperitoneal injection at the dose of 1 mg/kg, once per day. The administration was terminated after 15 consecutive days of administration. […] A single administration of 80 mg/kg hydroxycamptothecin was further given after two weeks. CPT was given to three treatment groups at the doses of 1.7 mg/kg, 5.0 mg/kg, 15.0 mg/kg respectively by intraperitoneal injection, once per day. The treatment contained a total of 15 injections.

cancer cells = experiment: Induction of apoptosis of cancer cells compared with wild type TRAIL; type: cell-based; conditions: CPT versus wild type TRAIL
[5] = Water solubility of the end product; type: physicochemical; conditions: purified protein, white powder
Excerpt: Finally, the protein was purified by an ion exchange column and a gel filtration column Superdex 200 (Pharmacia) mounted in an AKTA HPLC system (Pharmacia). […] The end product was a white powder and was water soluble.

[6] = CPT 1.7 mg/kg i.p. once per day
[7] = CPT 5.0 mg/kg i.p. once per day

B1: CPT: human recombinant circularly permuted TRAIL (CPT), which consists of 166 amino acid residues; SEQ ID No:2 (protein)
chain: TLSSPNSKNEKALGRKINSWESSRSGHSFLSNLHLRNGELVIHEKGFYYIYSQTYFRFQEEIKENTKNDKQMVQYIYKYTSYPDPILLMKSARNSCWSKDAEYGLYSIYQGGIFELKENDRIFVSVTNEHLIDMDHEASFFGAFLVGGGGGGVAAHITGTRGRSNT
modifications: Synthetically generated peptide
[1]
  IC50: 0.006 ± 0 µg/mL
[2]
  IC50: 0.085 ± 0.006 µg/mL
[3]; 4 days
  IC50: 10 ± 0 µg/mL
[3]; in words
  inhibitory effect on the growth of SCLC cell: some inhibitory effect; also recorded: some inhibition effect
[4]; [6]
  Body Weight (g) End: 20.6 ± 3.0 g
  RTV: 1.62 ± 0.62
  Tumor volume (mm^3) End: 582 ± 408** mm^3
  Tumor weight: 0.40 ± 0.33 g
  Body Weight (g) Start: 20.6 ± 1.1 g
  Tumor volume (mm^3) Start: 205 ± 47 mm^3
  Inhibition rate (%): 79.6%
[4]; [7]
  Body Weight (g) End: 21.4 ± 1.2 g
  RTV: 0.91 ± 0.35
  Tumor volume (mm^3) End: 314 ± 175** mm^3
  Tumor weight: 0.18 ± 0.15 g
  Body Weight (g) Start: 20.2 ± 0.8 g
  Tumor volume (mm^3) Start: 180 ± 63 mm^3
  Inhibition rate (%): 90.8% and 90.9%
[4]; CPT 15 mg/kg i.p. once per day
  Body Weight (g) End: 21.1 ± 2.4 g
  RTV: 0.33 ± 0.27
  Tumor volume (mm^3) End: 52 ± 53** mm^3
  Tumor weight: 0.05 ± 0.05 g
  Body Weight (g) Start: 20.0 ± 0.5 g
  Tumor volume (mm^3) Start: 192 ± 81 mm^3
  Inhibition rate (%): 97.4% and 97.8%
[4]; high-dose CPT (15 mg/kg/day, 15 injections), four weeks after the administration was stopped
  fraction of animals in which no tumor was found: ⅓
Cancer cells
  activity to induce apoptosis of cancer cells relative to wild type TRAIL: six to eleven times as strong
[5]
  water solubility of the end product: water soluble
